Measured values reported in patent US10568949B2, “Method of eliciting an anti-tumor immune response with controlled delivery of TLR agonists in porous polymerlc devices” (President and Fellows of Harvard College, priority 2008, dated 2020).

Tests used:
[1] = system: B16-F10 tumors; test: Example 7: tumor infiltrating leukocyte (TIL) characterization; set-up: species or system C57BL/6J mice; settings: mouse, in vivo
Experimental: On the indicated days, B16-F10 tumors were removed from mice, and digested in 1 mg/mL collagenase II (250 U/ml) (Worthington, Lakewood, N.J.) and 0.1 mg/mL DNase for 1 hour at 37° C. Dissociated cells were filtered through a 40-μm filter, and directly stained with antibodies for phenotype characterization by fluorescence-activated cell sorting (FACS) analysis. APC-anti-CD8 and PE-Cy7-anti CD3 were used to identify T cells isolated from the B16F10 tumors. These TILs were also costained with FITC-anti-IFNγ, and PE-anti-CD107a. All antibodies were obtained from eBioscience, San Diego, Calif.

[2] = system: B16-F10 cells; test: Example 7: vaccination of mice lacking CD8(+) DCs; format: in vivo; settings: vaccinated Batf3−/− mice
Experimental: C57BL/6 mice and Batf3−/− knockout mice (6-8-week-old female; Jackson Laboratories) were used in the studies described in Example 7.
Since PLG vaccines incorporating TLR agonists were capable of generating CD8(+) DC populations in situ, which correlated to potent anti-tumor CTL responses and survival (FIGS. 17A-D and 19A-F), studies were carried out to examine whether these cells were required to confer anti-tumor immunity in vivo. […] Wild-type and Batf3−/− mice were vaccinated with CpG-ODN loaded PLG vaccines and challenged with B16-F10 cells 14 days later. Vaccination of wildtype mice promoted complete protection against tumor growth and long-term survival (100% survival), as expected, but vaccinated Batf3−/− were not protected and tumor growth rates were similar to untreated, wild-type animals (FIG. 20A).

[3] = system: IL-12p70 and IFN-γ; settings: tumor lysate and CpG-ODN
Experimental: To determine the in vivo IL-12p70 and IFN-γ concentration at the matrix implant site, adjacent tissue was excised and digested with tissue protein extraction reagent at Day 10 after implantation (Pierce). After centrifugation, the concentrations of IL-12 and IFN-γ, in the supernatant were then analyzed with ELISA (R&D systems), according to the manufacturer's instructions. To determine the generation of TRP-2-specific cytotoxic T lymphocytes, single cell suspensions were prepared at Day 10 from the spleens of mice immunized with PLG vaccines. These cells were initially stained with PE-H-2Kb/TRP2 pentamers (Sigma Aldrich), and subsequently stained with FITC-anti-CD8 and PE-CY7 CD3 mAb (mAb (BD Pharmingen, San Diego) before being analyzed using flow cytometry.

[4] = system: bone marrow derived dendritic cells; test: Example 8: transwell chemotaxis and chemokinesis of bone marrow derived DCs; format: cell-based, C57BL/6 mice; settings: 12 h
Experimental: Primary bone-marrow-derived dendritic cells (BMDCs) were flushed from the femurs of C57BL/6 mice and cultured in 100-mm bacteriological petri dishes (Falcon number 1029/Becton Dickinson). Cell culture medium RPMI-1640 (R10) (Sigma) was supplemented with 1% Penicillin-Streptomycin (Invitrogen), 2 mM 1-Glutamine (Invitrogen), 50 μM 2-mercaptoethanol (Sigma) and 10% heat-inactivated fetal bovine serum (FBS, Invitrogen). At day 0, bone marrow leukocytes were seeded at 2×10^6 cells per 100-mm dish in 10 ml R10 medium containing 20 ng/nil granulocyte-macrophage colony-stimulating factor (GM-CSF) (Peprotech). At day 3, another 10 ml R10 medium containing 20 ng/mL GM-CSF was added. to the plates. At days 6 and 8, half of the culture supernatant was collected and centrifuged, the cell pellet was resuspended in 10 ml fresh R10 containing 20 ng/mL GM-CSF, and placed back into the original plate. The non-adherent cell population in the culture supernatant was used between days 8 and 12 for all the experiments.
Transwell migration studies were performed by plating bone marrow derived dendritic cells in the top well of 6.5 mm transwell dishes (Costar, Cambridge, Mass.) with a pore size of 5 μm. The chemotactic effects of GM-CSF, FL (Flt3), and CCL20 on the migration of BMDCs was assessed by placing 500 ng/ml of recombinant murine GM-CSF, FL or CCL20 (Peprotech, Rocky Hill, N.J.) in the bottom wells and 3×10^5 DCs in the top wells. For chemokinesis studies, the concentration of cytokine in each compartment was equal at 500 ng/ml and 3×10^5 DCs were added to the top wells. The number of cells that migrated from the top well to the bottom well through the porous membrane was counted at the end of 12 h to quantify migration. Cells that had migrated to the bottom well were collected by treatment with 0.25% trypsin-0.03% ethylenediaminetetraacetic acid (EDTA, Invitrogen) and counted with a Z2 coulter counter (Beckman Coulter, Inc).

[5] = system: dendritic cells; test: Example 8: DC recruitment and activation in cytokine loaded PLG matrices (FACS, day 7); format: in vivo, C57BL/6J mice
Experimental: To analyze DC recruitment by FACS analysis, scaffolds were excised and the ingrown tissue was digested into single cell suspensions using a collagenase solution (Worthingtion, 250 U/ml) that was agitated at 37° C. for 45 minutes. The cell suspensions were then poured through a 40 μm cell strainer to isolate cells from scaffold particles and the cells were pelleted and washed with cold PBS and counted using a Z2 coulter counter (Beckman Coulter). To assess, DC infiltration and activation, subsets of the total cell population isolated from PLG matrices were then stained with primary antibodies (BD Pharmingen, San Diego, Calif.) conjugated to fluorescent markers to allow for analysis by flow cytometry. APC-conjugated CD11c (dendritic cell marker), FITC-conjugated MHCII and PE-conjugated CD86 (B7, costimulatory molecule) stains were conducted for DC recruitment and activation analysis. To delineate the presence of the plasmacytoid DC subset, cells were also stained with APC-conjugated CD11c and PE-conjugated PDCA-1 (plasmacytoid DC marker). Cells were gated according to single positive FITC, APC and PE stainings using isotype controls. The percentage of cells staining positive for each surface antigen was recorded.

[6] = system: B16-F10 melanoma cells; test: Example 8: therapeutic vaccination, B16-F10 melanoma; format: in vivo, C57BL/6J mice; settings: vaccinated three days after tumor challenge
Experimental: PLG scaffolds containing B16-F10 melanoma tumor lysates, 100 μg CpG-ODN in combination with 3 μg GM-CSF, Flt3L or CCL20 were implanted subcutaneously into the lower left flank of C57BL/6J mice to act as cancer vaccines. To assess PLG vaccine efficacy in the therapeutic setting, C57/BL6J mice were challenged with a subcutaneous injection of 5×10^5 B16-F10 melanoma cells (ATCC, Manassas, N.J.) in the back of the neck, and 3 days after tumor challenge PLG vaccines were implanted subcutaneously into the lower left flank. Animals were monitored for the onset of tumor growth (approximately 1 mm^3) and sacrificed for humane reasons when tumors grew to 20-25 mm (longest diameter).

Molecule: CpG-ODN 1826
- increase in IFNγ(+), CD107a(+) TILs in comparison to controls [1]: approximately 6.1 fold
- decrease in TRP2 specific cytotoxic T cells at vaccine site vs wild-type [2]: 3 fold
- protection against tumor growth [2]: not protected

B1: granulocyte macrophage colony stimulating factor (protein, UniProt P01587 18-141, looked up)
Granulocyte-macrophage …: APTRSPITVTRPWKHVEAIKEALNLLDDMPVTLNEEVEVVSNEFSFKKLTCVQTRLKIFEQGLRGNFTKLKGALNMTASYYQTYCPPTPETDCETQVTTYADFIDSLKTFLTDIPFECKKPGQK
notes: cytokine encapsulated in and released from PLG matrices to recruit DCs
- increase in local concentration of IFN-γ over control scaffolds [3]: ~6 fold
- increase in local concentration of IL-12 over control scaffolds [3]: approximately 3 fold
- DC chemotaxis, migration higher than control condition ([4]; 500 ng/ml in bottom wells): approximately 50%
- DC chemokinesis, increase in number of migrated cells ([4]; homogenous cytokine 500 ng/ml): 50%
- DC recruitment relative to blank PLG matrices ([5]; day 7): > 5 fold
- MHCII(+) and CD86(+) DCs of total DCs recruited ([5]; in combination with CpG-ODN): 54-66%
- increase in total number of activated DCs relative to control matrices devoid of cytokines ([5]; in combination with CpG-ODN): Approximately 8 fold
- resident CD11c(+)PDCA-1(+) pDCs ([5]; in combination with CpG-ODN): approximately 110,000
- long-term survival rate [6]: 88%
